Consider 2 molecules from patent US20240182561A1, “CALCIUM VOLTAGE-GATED CHANNEL AUXILIARY SUBUNIT GAMMA 1 (CACNG1) BINDING PROTEINS AND CACNG1-MEDIATED DELIVERY TO SKELETAL MUSCLE” (Regeneron Pharmaceuticals, Inc., priority 2022, published 2024).

Test [1] concerns wildtype or CACNG1 knockout myofibers. The test can be described thus: Antibody binding to single myofibers ex vivo. Particulars: 100 nM antibody, 30 minutes; FIG. 2. Details: species or system mouse. On the procedure: (§1) Single myofibers were isolated from either wildtype mice, mice that were homozygous for the deletion of CACNG1 (referred to as CACNG1 knockout mice), or mice that were homozygous for the expression of human CACNG1 in place of mouse CACNG1 (referred to as CACNG1^Hu/Hu). The gastrocnemius muscle was removed, collagenase digested, and single myofibers were isolated, washed, and incubated overnight at 37° C. at 5% CO2, in DMEM+10% horse serum. Following overnight incubation, single myofibers were incubated with 100 nM of each CACNG1 antibody or an isotype control antibody for 30 minutes. Myofibers were then washed twice in DMEM+10% horse serum, and subsequently incubated with 10 μg/mL of fluorescent-conjugated secondary antibodies for 30 minutes, washed twice in DMEM+10% horse serum, and then fixed with 4% paraformaldehyde (PFA) for 15 minutes at room temperature. Single fibers were then washed twice with PBS, stained with Hoechst for 5 minutes, washed once more with PBS, then transferred to microscope slides, cover slipped, and imaged using a Zeiss LSM 710 confocal microscope.

A further test concerns CACNG1^Hu/Hu myofibers. The test can be described thus: Antibody binding to single myofibers ex vivo. On the set-up: species or system mouse. Particulars: 100 nM antibody, 30 minutes; FIG. 2. The method, then:
as §1

The next test concerns HEK293 Hz. As to the kind of experiment: High content imaging-based cell binding assay. Particulars: Table 11-1, HEK293 Hz; NB = no binding detected. On the set-up: species or system human. An excerpt:
(§2) To test the ability of anti-CACNG1 antibodies described herein to bind, internalize, and deliver payloads, cell binding and indirect cell killing assays were developed with primary human skeletal myoblasts (Cook Myosite Cat #SkMDC SK-1111), C2C12 mouse myoblasts (ATCC Cat #CRL-1772), and HEK293 cells engineered to express human and mouse CACNG1 (HEK293/hCACNG1 and HEK293/mCACNG1, respectively). To generate the HEK293/hCACNG1 and HEK293/mCACNG1 cell lines, FuGEGE 6 (Promega, Cat #E2691/5/3) was used to transfect HEK293HZ cells with a human CACNG1 (hCACNG1; amino acid M1-H222, Accession #NP_000718.1) or mouse CACNG1 (mCACNG1; amino acid M1-H223, Accession #NP_031608.1) expression vector. HEK293HZ is a highly transfectable subclone of HEK293 cells (1) authenticated via STIR (short tandem repeat) profiling to be 81% identical to HEK293 cells sourced from ATCC). The HEK293HZ cell line was maintained in DMEM+10% FBS+1% L-glutamine/penicillin/streptomycin, while HEK293/hCACNG1 and HEK293/mCACNG1 cell lines were maintained in DMEM+10% FBS+1% L-glutamine/penicillin/streptomycin+500 ug/mL G418. […]
(§3) Relative binding of anti-CACNG1 antibodies was assessed across the entire panel of cell lines via imaging analysis. […] Images were acquired with a 10× objective on the Opera Phenix (Perkin Elmer) and relative fluorescence units (RFU) was determined using Harmony software (Perkin Elmer).

Another test has as its system C2C12 mouse myotubes. As to the kind of experiment: High content imaging-based cell binding assay. Particulars: Table 11-1, C2C12; NB = no binding detected.
From the text: as §2, §3

The target of the next test is T1, HEK293/mCACNG1 (Mus musculus, UniProt O70578).
T1 construct: mouse CACNG1 (mCACNG1); expressed in transfected cells
T1 sequence (O70578 1-223): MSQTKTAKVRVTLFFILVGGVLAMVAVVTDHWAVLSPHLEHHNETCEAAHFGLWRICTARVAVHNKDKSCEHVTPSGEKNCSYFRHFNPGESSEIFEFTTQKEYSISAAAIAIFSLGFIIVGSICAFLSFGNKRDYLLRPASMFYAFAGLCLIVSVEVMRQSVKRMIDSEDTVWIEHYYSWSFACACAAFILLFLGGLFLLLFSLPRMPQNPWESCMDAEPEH
As to the kind of experiment: High content imaging-based cell binding assay. Particulars: Table 11-1, 293/mCACNG1; NB = no binding detected.
From the text: as §2, §3

A further test has as its system HEK293. The test can be described thus: Indirect (secondary) cell killing assay. The class given is cell-based, human. Particulars: Table 11-3; maximum % kill.
From the text: as §2, with “ATCC).” for “ATCC). The HEK293HZ cell line was maintained in DMEM+10% FBS+1% L-glutamine/penicillin/streptomycin, while HEK293/hCACNG1 and HEK293/mCACNG1 cell lines were maintained in DMEM+10% FBS+1% L-glutamine/penicillin/streptomycin+500 ug/mL G418.”
An indirect cell killing assay was used to assess the ability of anti-CACNG1 antibodies to internalize and deliver payloads into cells. In vitro cytotoxicity of the anti-CACNG1 antibodies alone or in combination with Fab anti-human Fc or Fab anti-mouse Fc secondary antibodies conjugated to Duocarmycin DM (Moradec, Cat #AH-202-DD-50 or Cat #AM-202-DD-50) were evaluated using the CellTiter-Glo 2.0 Assay Kit (Promega, Cat #G9243), in which the quantity of ATP present is used to determine the number of viable cells in culture. […]

The target in the next test is T2, human CACNG1 nanodisc (Homo sapiens, UniProt Q06432).
T2 construct: PΔΔCt RE (C); Flag (C)
T2 sequence (Q06432 whole entry): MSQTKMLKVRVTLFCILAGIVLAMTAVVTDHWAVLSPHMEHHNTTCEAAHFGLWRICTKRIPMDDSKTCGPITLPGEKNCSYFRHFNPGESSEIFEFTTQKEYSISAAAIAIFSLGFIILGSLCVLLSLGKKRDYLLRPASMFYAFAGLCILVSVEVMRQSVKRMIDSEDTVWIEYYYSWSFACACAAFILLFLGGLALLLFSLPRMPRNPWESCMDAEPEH
As to the kind of experiment: Biacore binding kinetics of anti-CACNG1 antibodies to surface-captured human CACNG1 nanodisc. Particulars: 25° C., 1:1 binding model. On the procedure:
This Example relates to evaluation of binding kinetics of purified anti-CACNG1 antibodies described herein to a human CACNG1 nanodisc capture surface using real-time surface plasmon resonance biosensor technology with a Biacore T200 instrument.
Equilibrium dissociation constants (KD values) for nanodisc embedded human CACNG1 expressed with a C-terminal […] tag (human CACNG1 nanodisc; concentration 0.82 mg/ml) binding to purified anti-CACNG1 antibodies were determined using a real-time surface plasmon resonance biosensor technology with a Biacore T200 instrument. The CM5 Biacore sensor surface was derivatized by amine coupling with a monoclonal mouse anti-His antibody (Cytiva; Marlborough, MA). All Biacore binding studies were performed in a buffer composed of 0.01M HEPES, 0.15M NaCl, 1 mM CaCl2, 0.5 mM MgCl2, pH 7.4 (HBS-N++ running buffer). […]
The specific SPR-Biacore sensorgrams were obtained by a double referencing procedure. […] Kinetic association (ka) and dissociation […] rate constants were determined by fitting the real-time sensorgrams to a 1:1 binding model using Scrubber v2.0c curve fitting software. Binding dissociation equilibrium constants (KD) and dissociative half-lives (t %) were calculated from the kinetic rate constants as: […]
In general terms: In SPR one partner is held on a chip, and binding of the other changes the refractive index at the surface.

B1: H1M31941N (antibody)
heavy: QVQLVQSGAEVKKPGASVKVSCKASGYAFTTYGITWVRQAPGQGLEWMGWISAYNGNTNYAEKVQGRFTMTTDTSTNTAYMELRSLRSDDTAVYFCARKGHYGSGTYYNPFGFDFWGQGTMVTVSSAKTTPPSVYPLAPGSAAQTNSMVTLGCLVKGYFPEPVTVTWNSGSLSSGVHTFPAVLQSDLYTLSSSVTVPSSTWPSETVTCNVAHPASSTKVDKKIVPRDCGCKPCICTVPEVSSVFIFPPKPKDVLTITLTPKVTCVVVDISKDDPEVQFSWFVDDVEVHTAQTQPREEQFNSTFRSVSELPIMHQDWLNGKEFKCRVNSAAFPAPIEKTISKTKGRPKAPQVYTIPPPKEQMAKDKVSLTCMITDFFPEDITVEWQWNGQPAENYKNTQPIMDTDGSYFVYSKLNVQKSNWEAGNTFTCSVLHEGLHNHHTEKSLSHSPGK
light: EIMLMQSPGTLSLSPGERATLSCRASQSVSSSYLAWYQQKPGQAPRLLIYGASSRATDIPDRFSGSGSGTDFTLTISRLEPEDFAVYFCQQYYGSPWTFGQGTKVEIKRADAAPTVSIFPPSSEQLTSGGASVVCFLNNFYPKDINVKWKIDGSERQNGVLNSWTDQDSKDSTYSMSSTLTLTKDEYERHNSYTCEATHKTSTSPIVKSFNRGEC
As a reminder, the EC50 is the concentration at which the effect is half-maximal. A high value points to weaker potency. With B1, in test [1], the “binding to wildtype or CACNG1 knockout myofibers” value is “did not bind”. The “binding to CACNG1^Hu/Hu myofibers ex vivo” value in the test on CACNG1^Hu/Hu myofibers was “demonstrated binding”. In addition, the EC50 in the test with HEK293 Hz, in the test on C2C12 mouse myotubes and with HEK293/mCACNG1 was over 100 nM throughout. For the same molecule, the “% KILL” value with HEK293 was found to be 0.0%.

B2: H2aM31941N: anti-CACNG1 antibody; HCVR SEQ ID NO: 25, LCVR SEQ ID NO: 29, HC SEQ ID NO: 151, LC SEQ ID NO: 152 (antibody)
heavy: B1 heavy
light: B1 light
Regarding B2, in the test with human CACNG1 nanodisc, the “ka” value came to 342000 M⁻¹ s⁻¹ and the “kd” value came to 0.000406 s⁻¹.
